Reference: the supplement of paper PMC9233669
This sample holds only a part of the variants without activity.

Key:
biotinyl-Ile-oxazolone = assay: self-aminoacylation, catalytic enhancement (BIO) (fold over background); higher = more active; k-Seq, kA / k0A0; sequences stand for … in GGGAAUGGAUCCACAUCUACGAAUUC…UUCACUGCAGACUUGACGAAGCUG
Outline: (§1)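 The uncatalyzed rate is the low-activity peak of a bimodal Gaussian fit, and catalytic enhancement is median kA divided by it. The kA values came from pseudo-first-order fits, with 1000 bootstraps, of per-sequence fraction reacted measured by streptavidin capture, triplicate qPCR and Illumina sequencing. Mutagenized RNA pools with a 21-nt variable region (0.43 μM) were reacted with each biotinyl-aminoacyl-oxazolone at 2–1250 μM in 50 μL HEPES/NaCl/KCl/MgCl2/CaCl2 buffer with 5% acetonitrile, pH 6.9–7.0, for 90 minutes at room temperature.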

biotinyl-Trp-oxazolone = assay: self-aminoacylation, catalytic enhancement (BWO) (fold over background); higher = more active; k-Seq, kA / k0A0; sequences stand for … in GGGAAUGGAUCCACAUCUACGAAUUC…UUCACUGCAGACUUGACGAAGCUG
Outline: as §1

biotinyl-Val-oxazolone = assay: self-aminoacylation, catalytic enhancement (BVO) (fold over background); higher = more active; k-Seq, kA / k0A0; sequences stand for … in GGGAAUGGAUCCACAUCUACGAAUUC…UUCACUGCAGACUUGACGAAGCUG
Outline: as §1

biotinyl-Leu-oxazolone = assay: self-aminoacylation, catalytic enhancement (BLO) (fold over background); higher = more active; k-Seq, kA / k0A0; sequences stand for … in GGGAAUGGAUCCACAUCUACGAAUUC…UUCACUGCAGACUUGACGAAGCUG
Outline: as §1

biotinyl-Phe-oxazolone = assay: self-aminoacylation, catalytic enhancement (BFO) (fold over background); higher = more active; k-Seq, kA / k0A0; sequences stand for … in GGGAAUGGAUCCACAUCUACGAAUUC…UUCACUGCAGACUUGACGAAGCUG
Outline: as §1

biotinyl-Met-oxazolone = assay: self-aminoacylation, catalytic enhancement (BMO) (fold over background); higher = more active; k-Seq, kA / k0A0; sequences stand for … in GGGAAUGGAUCCACAUCUACGAAUUC…UUCACUGCAGACUUGACGAAGCUG
Outline: as §1

Sequence | self-aminoacylation (biotinyl-Ile-oxazolone) | self-aminoacylation (biotinyl-Trp-oxazolone) | self-aminoacylation (biotinyl-Val-oxazolone) | self-aminoacylation (biotinyl-Leu-oxazolone) | self-aminoacylation (biotinyl-Phe-oxazolone) | self-aminoacylation (biotinyl-Met-oxazolone)
CUAUUUCAAACAAUCGGUGUG [Fam1A.1 aminoacylation ribozyme variant] | 0.727 | 0.757 | 0.83 | 0.992 | 0.988 | 1.01
CUAUUUCAAACCAUCGGUCUG [Fam1A.1 aminoacylation ribozyme variant] | 1.03 | 0.708 | 0.988 | 0.94 | 0.809 | 1.09
CUAUUUCAAAGAAUCGGUCUG [Fam1A.1 aminoacylation ribozyme variant] | 0.887 | 1.12 | 0.794 | 0.86 | 1.19 | 0.93
CUAUUUCAAAUAAUCGGUCUG [Fam1A.1 aminoacylation ribozyme variant] | 0.912 | 2.2 | 0.816 | 0.814 | 3.5 | 0.849
CUAUUUCAUACAAUCGGUCUG [Fam1A.1 aminoacylation ribozyme variant] | 0.911 | 0.625 | 0.801 | 0.804 | 0.812 | 0.837
CUAUUUGAAACAAUCGGUCUG [Fam1A.1 aminoacylation ribozyme variant] | 0.803 | 0.463 | 0.707 | 0.779 | 0.697 | 0.815
CUCCACUUCAAGCAAUCGGUC [Fam1B.1 aminoacylation ribozyme variant] | 1.37 | 27.6 | 1.45 | 2.07 | 50.4 | 1.27
CUCCUACAAACAAUCGGUCUG [Fam1A.1 aminoacylation ribozyme variant] | 0.836 | 0.924 | 0.693 | 0.873 | 0.939 | 0.838
CUCCUGCAAACAAUCGGUCUG [Fam1A.1 aminoacylation ribozyme variant] | 0.858 | 0.784 | 1.06 | 0.904 | 4 | 1.14
CUCCUUCAAACAAUCGGUCGG [Fam1A.1 aminoacylation ribozyme variant] | 1.32 | 24.2 | 1.33 | 2.14 | 62.4 | 1.96
CUCCUUCAAACAAUCGGUCUG [Fam1A.1 aminoacylation ribozyme variant] | 1.1 | 32.3 | 1.2 | 2.04 | 59.2 | 1.29
CUCCUUCAAAUAAUCGGUCUG [Fam1A.1 aminoacylation ribozyme variant] | 1.13 | 11.2 | 0.835 | 1.23 | 13.4 | 1.08
CUGCUUCAAAAAAUCGGUCUG [Fam1A.1 aminoacylation ribozyme variant] | 1.35 | 14.2 | 0.976 | 1.59 | 17.9 | 1.25
CUGCUUCAAACAAGCGGUCUG [Fam1A.1 aminoacylation ribozyme variant] | 0.718 | 0.576 | 0.731 | 0.777 | 0.392 | 0.597
CUGCUUCAAACAAUCGCUCUG [Fam1A.1 aminoacylation ribozyme variant] | 0.876 | 3.14 | 0.888 | 0.984 | 4.43 | 0.937
CUGCUUCAAACAAUCGGUAUG [Fam1A.1 aminoacylation ribozyme variant] | 1.29 | 40.2 | 1.33 | 2.5 | 75.4 | 1.56
CUGCUUCAAACAAUCGGUCUU [Fam1A.1 aminoacylation ribozyme variant] | 1.84 | 52 | 1.72 | 2.97 | 107 | 1.91
CUGCUUCAAACAAUCGGUUUG [Fam1A.1 aminoacylation ribozyme variant] | 2.07 | 84.2 | 2.1 | 3.93 | 223 | 2.38
CUGCUUCAAACCAUCGGUCUG [Fam1A.1 aminoacylation ribozyme variant] | 0.708 | 0.706 | 0.887 | 0.631 | 0.756 | 0.677
CUGCUUCAUACAAUCGGUCUG [Fam1A.1 aminoacylation ribozyme variant] | 0.671 | 0.32 | 0.602 | 0.628 | 0.639 | 0.69
CUGCUUCCAACAAUCGGUCUG [Fam1A.1 aminoacylation ribozyme variant] | 0.634 | 1.02 | 0.691 | 0.73 | 1.03 | 0.737
CUUACCCUAGUCAUCGAGUGA [Fam2.1 aminoacylation ribozyme variant] | 2.99 | 6.07 | 3.24 | 5.38 | 5.25 | 4.55
CUUACCCUGGUCAUCGAAUGA [Fam2.1 aminoacylation ribozyme variant] | 1.01 | 0.668 | 0.985 | 0.937 | 1.02 | 0.915
CUUACCCUGGUCAUCGAGUGU [Fam2.1 aminoacylation ribozyme variant] | 8.72 | 25.6 | 9.84 | 24.6 | 102 | 26.4
CUUACCCUGGUCAUCGAUUGA [Fam2.1 aminoacylation ribozyme variant] | 0.751 | 1.34 | 0.929 | 0.839 | 0.863 | 0.863
